Numbering of substitutions follows the chain as printed.
T1: recombinant HKU1 spike protein (HCoV-HKU1, UniProt Q5MQD0 13-1276)
T1 sequence: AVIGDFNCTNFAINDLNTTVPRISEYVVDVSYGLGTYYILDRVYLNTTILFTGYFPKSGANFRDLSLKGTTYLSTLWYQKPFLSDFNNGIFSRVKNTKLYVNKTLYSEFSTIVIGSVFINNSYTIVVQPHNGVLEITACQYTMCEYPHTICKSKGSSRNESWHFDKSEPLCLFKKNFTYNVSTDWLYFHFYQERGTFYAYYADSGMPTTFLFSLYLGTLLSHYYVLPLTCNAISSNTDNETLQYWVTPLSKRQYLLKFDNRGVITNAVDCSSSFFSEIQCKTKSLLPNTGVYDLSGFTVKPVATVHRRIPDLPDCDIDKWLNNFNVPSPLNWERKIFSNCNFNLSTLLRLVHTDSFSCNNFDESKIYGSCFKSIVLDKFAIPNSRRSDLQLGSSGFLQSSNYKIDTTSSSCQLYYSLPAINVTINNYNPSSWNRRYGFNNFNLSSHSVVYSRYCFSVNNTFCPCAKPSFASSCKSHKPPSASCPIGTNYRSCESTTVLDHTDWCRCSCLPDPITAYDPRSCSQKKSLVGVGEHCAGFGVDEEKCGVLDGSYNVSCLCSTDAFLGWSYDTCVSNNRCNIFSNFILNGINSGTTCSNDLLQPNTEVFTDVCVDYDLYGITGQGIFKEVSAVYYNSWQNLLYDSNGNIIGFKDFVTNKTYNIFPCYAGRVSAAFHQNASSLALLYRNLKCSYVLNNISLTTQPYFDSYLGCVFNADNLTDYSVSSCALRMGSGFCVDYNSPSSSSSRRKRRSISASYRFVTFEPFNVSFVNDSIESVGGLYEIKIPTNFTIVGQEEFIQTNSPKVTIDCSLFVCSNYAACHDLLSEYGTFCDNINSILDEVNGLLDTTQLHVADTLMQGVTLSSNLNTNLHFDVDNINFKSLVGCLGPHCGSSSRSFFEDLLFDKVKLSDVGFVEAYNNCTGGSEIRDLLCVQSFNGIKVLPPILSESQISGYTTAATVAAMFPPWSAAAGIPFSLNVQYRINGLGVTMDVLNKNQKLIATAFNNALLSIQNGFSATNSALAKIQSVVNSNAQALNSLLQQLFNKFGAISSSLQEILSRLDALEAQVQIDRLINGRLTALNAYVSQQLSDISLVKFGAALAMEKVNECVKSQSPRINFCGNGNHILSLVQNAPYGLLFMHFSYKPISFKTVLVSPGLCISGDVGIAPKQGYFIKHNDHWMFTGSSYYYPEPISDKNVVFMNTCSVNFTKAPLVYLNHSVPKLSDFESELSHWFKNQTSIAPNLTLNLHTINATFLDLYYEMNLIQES

T2: recombinant MERS-COV spike protein (MERS-CoV, UniProt K9N5Q8 18-1291)
T2 sequence: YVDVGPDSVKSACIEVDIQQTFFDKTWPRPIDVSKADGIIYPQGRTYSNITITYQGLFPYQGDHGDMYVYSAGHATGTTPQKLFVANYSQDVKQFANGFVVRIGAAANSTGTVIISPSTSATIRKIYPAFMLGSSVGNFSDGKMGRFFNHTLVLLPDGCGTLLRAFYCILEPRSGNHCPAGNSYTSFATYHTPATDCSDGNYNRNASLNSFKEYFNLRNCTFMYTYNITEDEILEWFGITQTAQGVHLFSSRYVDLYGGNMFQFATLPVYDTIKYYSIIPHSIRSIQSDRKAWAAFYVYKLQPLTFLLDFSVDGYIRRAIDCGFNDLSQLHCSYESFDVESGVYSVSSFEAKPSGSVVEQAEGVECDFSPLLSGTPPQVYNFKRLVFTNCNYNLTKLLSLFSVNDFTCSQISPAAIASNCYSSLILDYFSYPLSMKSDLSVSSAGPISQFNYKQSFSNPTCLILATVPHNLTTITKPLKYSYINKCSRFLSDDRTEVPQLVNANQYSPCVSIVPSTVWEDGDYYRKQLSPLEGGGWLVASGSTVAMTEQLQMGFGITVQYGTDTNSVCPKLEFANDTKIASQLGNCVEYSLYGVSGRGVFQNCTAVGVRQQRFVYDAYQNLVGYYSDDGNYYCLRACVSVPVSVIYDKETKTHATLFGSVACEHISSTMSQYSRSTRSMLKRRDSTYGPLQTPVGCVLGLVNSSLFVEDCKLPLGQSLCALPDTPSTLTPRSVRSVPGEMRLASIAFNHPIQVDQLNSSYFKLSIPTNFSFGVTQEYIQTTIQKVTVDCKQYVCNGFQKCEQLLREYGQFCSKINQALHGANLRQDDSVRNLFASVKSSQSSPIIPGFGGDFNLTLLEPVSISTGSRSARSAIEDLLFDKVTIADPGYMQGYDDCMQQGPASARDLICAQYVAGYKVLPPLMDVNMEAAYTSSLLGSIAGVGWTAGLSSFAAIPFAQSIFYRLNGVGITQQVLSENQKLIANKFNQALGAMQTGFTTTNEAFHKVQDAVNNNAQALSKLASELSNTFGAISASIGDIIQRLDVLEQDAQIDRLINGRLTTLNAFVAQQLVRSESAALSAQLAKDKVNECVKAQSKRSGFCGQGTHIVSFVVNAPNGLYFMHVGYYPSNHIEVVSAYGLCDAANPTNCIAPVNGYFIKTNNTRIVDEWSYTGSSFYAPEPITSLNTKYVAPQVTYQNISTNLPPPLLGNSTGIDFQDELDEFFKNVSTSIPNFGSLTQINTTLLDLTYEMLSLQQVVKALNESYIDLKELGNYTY

B1: VHH R3_C4 (VHH)
VHH: QVQLQESGGGLVQAGDSLRLSCAVSGRPFSTYTMGWFRQAPGKEREFVAAMRWSGGTIYYADSVKGRFTISRDNDKNTVNLEMNSLKPEDTAVYYCAAAYVSKANYGSLWYRASGLYDYWGQGTQVTVSS
B2: VHH R4_DC16 (VHH)
VHH: B1 VHH with D75A, K76Q, E82Q, L109S, A113N
B3: VHH R3_DC2 (VHH)
VHH: B1 VHH with A14T, A50S, I58K, A61S, T69S, K76Q, E82Q, A113N
B4: VHH R4_DC20 (VHH)
VHH: B1 VHH with A14T, A50S, I58M, Y59N, K76Q, E82Q, A113N
B5: VHH R4_DC13 (VHH)
VHH: B1 VHH with A14T, A50S, I58V, A61S, E82Q, S85N, L109F, A113N, G115D
B6: VHH R3_DC9 (VHH)
VHH: B1 VHH with A14T, A50S, I58M, A61S, E82Q, A113N
B7: VHH R3_DC20 (VHH)
VHH: B1 VHH with D75A, K76Q, E82Q, K87E, A113N
B8: VHH R4_DC9 (VHH)
VHH: QVQLQESGGGLVQAGDSLRLSCAASGRIFSTYTMGWFRQAPGMEREFVAAIRWSGSTVYYADSVKGRFTISRDNAKNTVYLQMNSLKPEDTAVYYCAAARVSKANYGTLWYRASGLYDYWGQGTQVTVSS
B9: VHH R3_DC23 (VHH)
VHH: QVQLQESGGGLVQAGDSLTLSCAVSGRIFSTYTMGWFRQAPGKEREFVAAVRWGAGTIYYADSMKGRFTISRDSAKNTVDLQMNSTKPEDTAVYYCGAAYVSKANYGSLWYQDSRRYDYWGQGTQVTVSS
B10: VHH R4_DC6 (VHH)
VHH: QVQLQESGGGLVQAGDSLRLSCAASGRILSTFTMGWFRQAPGKEREFVAAMRWNGGTKNYADSVKGRFTISRDNANSVVYLQMNSTKPEDTAVYYCAAAYVSKANYGSLWYRTPSLYDYWGQGTQVTVSS

How the values were obtained:
[1] = biological target: T1, recombinant HKU1 spike protein; assay: ELISA, periplasmic extract 1/10, heat map of binding (%)
[2] = biological target: T2, recombinant MERS-COV spike protein; assay: as above
[3] = biological target: T3, BSA (bovine, UniProt P02769); assay: ELISA, coated BSA, dilution series, OD450 [2/3]
T3 construct: coated control antigen

[4] = biological target: SARS-COV-2 RBD (His-tagged, Sinobiologicals) (SARS-CoV-2 (Wuhan), UniProt P0DTC2 319-541); assay: ELISA, periplasmic extract 1/10, OD450 antigen/OD450 BSA
[5] = biological target: T3, BSA; assay: ELISA, coated BSA, dilution series, OD450 [1/3]

T3 sequence (P02769 25-607 limits assumed): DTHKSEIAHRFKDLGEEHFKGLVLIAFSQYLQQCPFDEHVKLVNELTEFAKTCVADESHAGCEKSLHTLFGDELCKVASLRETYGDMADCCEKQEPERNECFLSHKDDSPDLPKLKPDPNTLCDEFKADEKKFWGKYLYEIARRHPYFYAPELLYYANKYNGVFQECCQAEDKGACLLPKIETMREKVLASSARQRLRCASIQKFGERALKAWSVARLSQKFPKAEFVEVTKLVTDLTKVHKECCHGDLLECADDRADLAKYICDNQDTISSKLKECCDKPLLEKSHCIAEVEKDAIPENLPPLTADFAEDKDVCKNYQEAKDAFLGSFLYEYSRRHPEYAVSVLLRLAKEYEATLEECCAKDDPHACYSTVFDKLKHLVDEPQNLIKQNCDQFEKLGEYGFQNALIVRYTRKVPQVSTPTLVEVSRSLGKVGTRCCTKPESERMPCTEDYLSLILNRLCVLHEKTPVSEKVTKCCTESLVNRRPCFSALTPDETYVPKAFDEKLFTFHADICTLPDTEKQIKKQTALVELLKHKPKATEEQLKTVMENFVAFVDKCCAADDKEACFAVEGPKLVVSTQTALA

Binder | binding result [1] | binding result [2] | binding result [3] | binding result [4] | binding result [5]
B1 | no binding (tested: extract 1/10, concentration not given) | no binding (tested: extract 1/10, concentration not given) | no binding (tested: 10 µg/ml) |  | 
B2 | no binding (tested: extract 1/10, concentration not given) | no binding (tested: extract 1/10, concentration not given) | no binding (tested: 10 µg/ml) |  | 
B3 | no binding (tested: extract 1/10, concentration not given) | no binding (tested: extract 1/10, concentration not given) | no binding (tested: 10 µg/ml) | no binding (tested: extract 1/10, concentration not given) | 
B4 | no binding (tested: extract 1/10, concentration not given) | no binding (tested: extract 1/10, concentration not given) |  |  | no binding (tested: 10 µg/ml)
B5 | no binding (tested: extract 1/10, concentration not given) | no binding (tested: extract 1/10, concentration not given) | no binding (tested: 10 µg/ml) |  | 
B6 | no binding (tested: extract 1/10, concentration not given) | no binding (tested: extract 1/10, concentration not given) |  | no binding (tested: extract 1/10, concentration not given) | 
B7 | no binding (tested: extract 1/10, concentration not given) | no binding (tested: extract 1/10, concentration not given) |  | no binding (tested: extract 1/10, concentration not given) | no binding (tested: 10 µg/ml)
B8 | no binding (tested: extract 1/10, concentration not given) | no binding (tested: extract 1/10, concentration not given) |  |  | 
B9 | no binding (tested: extract 1/10, concentration not given) | no binding (tested: extract 1/10, concentration not given) |  |  | no binding (tested: 10 µg/ml)
B10 | no binding (tested: extract 1/10, concentration not given) | no binding (tested: extract 1/10, concentration not given) |  |  | 

Reference: US20250313611A1 (VIB VZW, published 2025)
